± gives the uncertainty stated by the source.
Experiment: amyloid nucleation score (Sup35N fusion, yeast selection) (log enrichment); library NNK2; higher = more nucleation; inactive = no reads after selection
How it was run: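 Growth for 7 days at 30°C on medium lacking adenine and uracil followed a 24-hour induction with 100 μM copper sulfate of psi-negative yeast expressing peptides of 20 random codons fused to Sup35N. Input and output plasmid inserts were sequenced with Illumina, and sequences with under 100 input reads were excluded. Nucleation score is the DiMSum log enrichment of output over input reads, centred on the mode score of non-aggregating sequences.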

Row | Substance | amyloid nucleation score
1 | RLNCACFRADTVGDYLGVRL | -0.158 ± 0.29
2 | RVDFFRFSVQSESWSVLH | 0.334 ± 0.35
3 | CYAIMNGVSFLDLIGGARET | 5.85 ± 0.077
4 | MVPGDRCPIAKNHFFPKINL | -0.335 ± 0.45
5 | GTRDHGELGLLFTTTLLFVE | 1.39 ± 0.13
6 | IVLEMLKVTRVGPKQIGWPW | 0.696 ± 0.38
7 | KSYLWASAAVEGNCYNPVNR | -0.195 ± 0.48
8 | NATEGFESFWM | inactive
9 | KLAVCLCGSKHNDLGYRGDP | inactive
10 | TINTAMWTWSITETLPYCTW | 4.03 ± 0.06
11 | LRGYCLRWRHWTVSILEFGV | -1.02 ± 0.76
12 | FKFYYVYYDITFYEC | -0.454 ± 0.28
13 | HYLPT | -0.208 ± 0.35
14 | RDLDY | -1.27 ± 0.75
15 | YMTEIANKRSPRACWIGERM | -0.156 ± 0.79
16 | VEARKLYQCMCVVRC | -0.143 ± 0.28
17 | CLNTLFVEFRCLSMGACCGI | 1.1 ± 0.31
18 | DVVCRMRATYCWALRVMGQR | 1.58 ± 0.29
19 | CACDNHIVNRSESHCYGSLR | -0.293 ± 0.39
20 | FVKGS | inactive
21 | LFVCNSMP | 0.35 ± 0.8
22 | YDDKLHRPDDFGCRDHSPGM | 0.495 ± 0.41
23 | FTGIRRGLWLS | 0.405 ± 0.56
24 | MESRILRNIYFCLTCKPSQW | 2.24 ± 0.17
25 | PRAHTVNV | -0.249 ± 1.1
26 | TGCLLWCLLSMEGRESFQDD | -0.504 ± 0.78

Row | Substance | amyloid nucleation score
27 | VKVRFFSHVNSMMSLKSIVV | inactive
28 | RRSDKLAVLWYSDKRMARWS | -0.582 ± 0.33
29 | VLDCRFKCCNFTRDLT | 7.67 ± 0.043
30 | DRNVTESMGYVWTASWGAY | 0.366 ± 0.41
31 | NSMSDLFSFSY | inactive
32 | NPELRRGWFTWYPVGPGMKQ | 0.175 ± 0.54
33 | SVRHCLSLSSM | inactive
34 | YCMNLKDSTLLILKQPARST | 7.045 ± 0.047
35 | TVAGYCVPSSSCRTGTFTVC | -0.567 ± 0.33
36 | CVMFTLSCVNFDCDCSCRWK | 6.31 ± 0.084
37 | FTWCRWVFWRNCYNDMEEDA | -1.01 ± 1.1
38 | NSKYPGVLYCFYRGFGRRVY | inactive
39 | YIIWLI | inactive
40 | WCLFVLRRADTFRKGESVTC | 1.79 ± 0.45
41 | LTFPA | -0.206 ± 1.1
42 | NVLRCINYYLYYTSGCASSS | -0.169 ± 0.42
43 | KLGWTRLTPNVAHFHLIVGL | 0.583 ± 0.4
44 | FEDFLCFSGMRFVFELCADT | -0.917 ± 0.78
45 | INGWEPSIIDVIYNAHQIGP | 0.107 ± 0.79
46 | YTDISCVLLGLG | -1.76 ± 0.78
47 | LNTVYCN | -1.09 ± 0.47
48 | LGYGRWCKVARPEYESGLTM | 0.042 ± 1.1
49 | LCLTR | -0.307 ± 0.63
50 | IFCWL | 3.51 ± 0.047
51 | YLYLRKASEFLKGRWWVKYK | inactive
52 | LLLILTL | 0.21 ± 1

Row | Substance | amyloid nucleation score
53 | FGLLYYAYNRFMLARINGHT | -0.261 ± 1.1
54 | GLRSLVHEARCRYKTSTSVK | -0.939 ± 0.55
55 | YVVVLNWNSHCSKYYELRQE | 8.402 ± 0.05
56 | RSSRHLDAYIEAS | 0.877 ± 0.28
57 | YRCVWYGFPSRSWAGSSDIL | 0.309 ± 0.8
58 | LRKWILLLRDYDSLYFCLVA | -0.996 ± 0.36
59 | GRVFIASLIARTDPPKLVFK | 1.67 ± 0.083
60 | LHSRFL | 0.236 ± 1.1
61 | NSNLNYPECWEEWTLNHFTD | inactive
62 | WNEIE | inactive
63 | NPVMTA | -0.314 ± 0.37
64 | MCMGFRRPLTRTFFRTLCAR | 0.684 ± 0.54
65 | GILVRRYAWSELMNGED | 0.116 ± 0.49
66 | ILVMKFNSWLADEDRVRSVI | 1.21 ± 0.27
67 | SLFCVYYNDSSLLSYSVWQI | 5.75 ± 0.06
68 | PAKERLFRVETGRFRMKGSW | 1.63 ± 0.13
69 | HVGVHSNFLQIS | -1.34 ± 1
70 | PKNMWGSNNLRGMPVSDVKS | 0.032 ± 0.34
71 | DIVRSYV | -0.27 ± 0.45
72 | NWGWFVSLFYGVAAGDHSRT | 0.955 ± 0.37
73 | HYRSFVDFITGWLVSFATEP | 4.28 ± 0.054
74 | QEQDKSRELKCGGKLYVYEG | 1.04 ± 0.68
75 | LRLARKRVECFVLLADFNNR | 0.306 ± 0.53
76 | MEEGRS | 0.525 ± 0.28
77 | VSRMLSVMSMTTRMFLPYTS | 0.152 ± 0.61
78 | RSGLSVIYLYY | inactive

Row | Substance | amyloid nucleation score
79 | LIRPSLPSS | 0.807 ± 0.28
80 | TFSCCACWGCFTRNV | 10.55 ± 0.047
81 | AIPVYFVLLMSITPLQLVVM | 1.38 ± 0.15
82 | LLSTDESCSTLNIYCIYTPR | 8.139 ± 0.045
83 | CTIRLECLLA | -0.428 ± 0.46
84 | LGDAHALCGRLTVCRGGTGP | 3.58 ± 0.075
85 | KLKCHMSESLKWIGAVKSRR | 0.776 ± 0.43
86 | CFSRIFICN | -0.075 ± 0.49
87 | RGRTGRCSAFSQSILNGLRA | -0.181 ± 0.63
88 | RVMRVISRPEELAWVA | 0.602 ± 0.29
89 | LFSLTGIKLE | -0.483 ± 1.1
90 | GGYICFQMFFYCVFARNY | 1.27 ± 0.082
91 | YFCSLDSMPQSSVFDYLSAL | -0.43 ± 1.1
92 | YHGFSQDCLNV | -0.042 ± 0.55
93 | DSWSAVYTNISELAIGGCHG | -0.055 ± 1.1
94 | CNMLRVNHRNLVLTDMCNG | 0.204 ± 0.8
95 | DSRMRWL | 0.149 ± 0.27
96 | VRSWTGPSEVQNCKSEFSGA | 0.731 ± 0.28
97 | DCMTMINLICNGMPAICRMT | 0.445 ± 0.18
98 | GFSSHSSFNHTI | 1.37 ± 0.32
99 | YSFYAGFVNYIKVWNNRG | 4.23 ± 0.05
100 | SVWPGRSAEASRFGFGAGAD | 0.528 ± 0.49
101 | LNVGIFNLLTSSGFMGTIRR | 4.39 ± 0.045
102 | QSMTTQNLGVWEELCKAFLI | inactive
103 | FFGALNWGLKQE | 0.646 ± 0.43
104 | VNWGNGVFAGFLWYYVRPCH | -1.03 ± 1.1

Row | Substance | amyloid nucleation score
105 | LVSLLFFGSVSLAKCQWN | -0.526 ± 0.79
106 | PMISKVCHILKRVEPSWGMR | -0.199 ± 1.1
107 | YSSVSR | -1.05 ± 0.55
108 | ILTWVAHILLP | 3.72 ± 0.072
109 | SFKHLT | -0.853 ± 1.1
110 | NPINRYCVAHEKLFRNVRSV | 1.87 ± 0.29
111 | YDEYF | inactive
112 | VTSLDFKFNVGEY | 0.832 ± 0.67
113 | DAFYDS | -2.05 ± 0.75
114 | FPLLNCKRACLKAAVEAHYR | 0.076 ± 0.61
115 | QHVGDSWMSSVNLGVLRVRL | 0.055 ± 0.35
116 | RQEINSYGNTPRRGGPRLRH | -0.093 ± 0.55
117 | VGVIAMPLFLCMGQDSLLFV | 4.6 ± 0.061
118 | INCRFMVCWA | 9 ± 0.052
119 | ARCTKINLGPYRGSINSLFW | inactive
120 | FCWRYNSKIRLKHGQDSGPR | -0.343 ± 0.33
121 | TPDAGMWNYECYIVTVW | -0.615 ± 0.49
122 | GHMLLFTFFR | 5.965 ± 0.035
123 | GSVFSKHQGSFVFSLQQLGL | -1.43 ± 0.34
124 | GSSTMWNVLVAWLRTIL | inactive
125 | GRKLNFGQAFLWLYQVCWFM | inactive
126 | FFSSTMNCVSLKRVKL | -0.432 ± 1.1
127 | TGRWCVVGHRKSS | -0.056 ± 0.34
128 | YHWNVGIDGYLNSTMLLQAY | inactive
